Experimental data from the Human Domainome abundance scans (Beltran et al. 2025).

B1: Peroxisome proliferator-activated receptor delta, residues 71 to 145; numbered along this chain, Q03181 (parent)
chain: NMECRVCGDKASGFHYGVHACEGCKGFFRRTIRMKLEYEKCERSCKIQKKNRNKCQYCRFQKCLALGMSHNAIRF

Variants of: B1
Assay: abundance fitness (aPCA) (normalised: wild type 0, dead -1); higher = more abundant; growth selection in yeast, the domain comes from the species named
Settings: Homo sapiens

Abundance fitness: each site, then its substitutions
C4: S -0.669; H -0.576; E -0.571; Q -0.738; M -0.461; F -0.675; I -1.14; K -0.775; Y -0.693; N -0.738; P -1.07; G -0.911; W -0.747; R -0.558; T -0.962
N1: Y -0.266
E3: K -0.089; C -0.278; A -0.204; D 0.059; I -0.044; R -0.327; Y -0.182; F -0.086; P -0.353; H -0.027; W -0.176; T -0.102; L -0.106; Q -0.059; S -0.033; N -0.079; V -0.178
G8: T -0.447; K -0.563; Q -0.253; M -0.782; I -0.687; F -0.779; S -0.362; D -0.434; A -0.382; V -0.899; C -0.582; H -0.064; P -0.891; W -0.812; E -0.32; L -0.598; Y -0.438
V6: N -0.624; E -0.561; K -0.745; M -0.674; G -0.841; S -1.07; L -0.614; A -0.619; T -1.18; P -0.923; R -0.839; F -0.547; W -0.934; H -0.914; Y -0.748; C -0.873; Q -0.968; I 0.059; D -0.823
D9: S -0.178; T -0.327; V -0.331; N -0.152; C -0.305; K -0.548; H -0.668; A -0.065; E -0.154; G -0.198; W -0.618; F -0.283; R -0.348; L -0.63; Q -0.374; M -0.436; I -0.345
M2: C -0.064; N -0.21; P -0.58; D -0.056; L -0.315; S -0.305; T -0.156; A -0.526; K -0.249; E -0.227; F -0.432; W -0.527; Y -0.113; V -0.155; H -0.276; R -0.417
R5: N 0.089; P -0.376; C -0.13; Y -0.085; F -0.326; D 0.032; I -0.176; Q 0.113; L 0.003; H -0.257; E 0.105; V 0.091; T -0.018; G -0.045; M 0.067; A 0.175; K 0.139; S 0.034; W -0.118
C7: I -0.877; Q -0.584; D -0.952; M -0.984; P -0.759; W -0.895; T -0.862; F -0.867; E -0.656; H -0.21; K -0.63; N -0.412; R -0.793; A -0.66; Y -0.673; G -0.504; S -0.575; L -0.782
K10: F -0.283; C -0.336; P -0.268; S -0.106; H -0.027; E 0.007; Q 0.08; L -0.018; N -0.075; A -0.002; D -0.01; W -0.206; I -0.052; V 0; G -0.191; M -0.107
A11: I -0.154; F -0.228; M -0.337; C -0.367; R -0.485; G -0.232; K -0.482; Q -0.546; D -0.237; H -0.218; L -0.338; P -0.197
